# Reference: patent publication US6132711A, “Enzymatic antioxidant of allene oxide for lipid peroxidation in biological systems” (Arizona Board of Regents, priority 1997, dated 2000)
# “Also recorded” adds a separate entry of the source.
# Assays:
# [1] = test system: linoleic acid hydro peroxide (LOOH); test: AOS activity assay: degradation of linoleic hydroperoxide (LOOH) followed at 234 nm; type: biochemical, guayule
# Protocol: A difference spectra of this extract clearly indicated a characteristic peak at 450 nm (arrow, FIG. 6C). […] This substrate was prepared according to Zimmerman (Zimmerman, Biochem. Biophys. Res. Comm. 23:398-403 (1966); Zimmerman and Feng, Lipids 13:313-316 (1978); Zimmerman and Vick, Plant. Physiol. 46:445-453 (1970)).
# (1991) and Zimmerman, op cit. (1966); Zimmerman and Vick, op cit. (1970) and Zimmerman and Feng, op cit. (1978)
# [2] = Prenyltransferase activity: incorporation of 14C-isopentenyl pyrophosphate into isoprenoid derivatives, TLC; type: biochemical, guayule; conditions: CHAPS-solubilized, filtered RPP; DMAPP as initiator; 100 μl aliquots
# Protocol: Biochemical analyses were performed on RPP purified from rubber particles. Three-times-washed rubber particles were prepared by centrifugation according to Cornish and Backhaus, op cit. (1990) from a crude homogenate of guayule stembark. […] Prenyltransferase activity was determined for each purification step by measuring the incorporation of ^14 C-isopentenyl pyrophosphate into isoprenoid derivatives that were analyzed by TLC (benzene/ethyl acetate, 90/10) and autoradiography (Dogbo and Camara, Plant Sci. 49: 103-109 (1987); Kuntz et al., Plant J. 2:25-34 (1992)). Dimethylallyl pyrophosphate (DMAPP) was used as the initiator to measure activity in 100 μl aliquots of proteins from each of the three steps (FIG. 6B, lanes 1-3). […] However, prenyltransferase activity was present in both the crude homogenate and washed preparations containing rubber particles (cf. FIG. 6B, lane 3 with lanes 1 and 2). […]
# Washed rubber particles were prepared by centrifugation according to Cornish and Backhaus, op cit.(1990) from a crude homogenate of guayule stembark. […] Prenyltransferase activity was determined for each purification step by measuring the incorporation of ^14 C-isopentenyl pyrophosphate into isoprenoid derivatives according to Dogbo and Camara, op cit. […]
# [3] = test system: linoleic acid conjugated dienes; test: UV spectrophotometry of superoxide-induced linoleic acid conjugated dienes (A234); type: biochemical, guayule
# Protocol: Likewise, the effect of superoxide, produced by the riboflavin/TEMED mixture and light, on lipid peroxidation was determined. […] The mixture was exposed to light and scanned in a UV spectrophotometer at 200 to 300 nm at 10 sec intervals for 2 minutes and again at 5 and 10 min. The effect of AOS on superoxide-inducedlinoleic hydroperoxides was determined using partially pure AOS solubilized from fresh rubber particles using the CHAPS extraction and filtration procedure (Pan et al., J Biol Chem 270: 8487-8494, 1995), which removed all remaining rubber. One μg partially pure AOS was added to oxidized linoleic acid and UV scanned at 2 minute intervals.
# This mixture was scanned at A234 followed by addition of riboflavin/TEMED and exposure to 10 min. of light, to produce superoxide. The mixture was rescanned at 10 min intervals.
# [4] = test system: tobacco leaf disks; test: Cell leakage analysis of leaf disks treated with methyl viologen; type: cell-based, tobacco cv. Samsun; conditions: transgenic AOS tobacco vs untransformed control; 1.2 μM methyl viologen
# Protocol: Transgenic cv. Samsun tobacco plants that […] AOS and untransformed cv. Samsun plants were gown in a growth chamber maintained at 28° C. and an irradiance of 500 μmole quanta per square meter per sec. at 16 hours per day. Leaf disks of transgenic plants (FIG. 20, disks 3, 6, 14 and 17) were compared with untransformed plants (FIG. 20, disk C) according to the general method set forth in Gupta et al., Proc. Natl. Acad. Sci. USA 90: 1629-1633 (1993).
# Leaf disks (2 cm^2) were collected from tobacco plants and placed in petri dishes (15×60 mm) containing 4 ml of a 1.2 μM methyl viologen (MV) solution and vacuum infiltrated for 5 min. MV values are means ±SD (n=4). The samples were incubated at 22° C. for 16 hours in darkness followed by illumination at 500 μM quanta per square meter per sec. for 2 hours. The leaf disks then were incubated for an additional 16 hours in darkness.
# The MV solution was collected for conductivity with leaf disks then was autoclaved for 10 min. at 121° C. The conductivity of the autoclaved solution was again measured. The present electrolyte leakage was determined by dividing the value of conductivity of MV solution by the value obtained after autoclaving.
# [5] = Backhaus et al. 1991; cited from earlier work
# [6] = test system: lipid hydroperoxides; conditions: Hamberg 1987; cited from earlier work
molecule,measurement,setting,value
"RPP: polypeptide of 53,500 Daltons from guayule rubber particles; non-mono-oxygenase cytochrome P450 heme-binding protein, a species of allene oxide synthase (protein) MDPSSKPLREIPGSYGIPFFQPIKDRLEYFYGTGGRDEYFRSRMQKYQSTVFRANMPPGPFVSSNPKVIVLLDAKSFPILFDVSKVEKKDLFTGTYMPSTKLTGAYRVLSYLDPSEPRHAQLKNLLFFMLKNSSNRVIPQFETTYYELFEGLEAELAKNGKAAFNDVGEQAAFRFLGRAYFNSNPEETKLGTSAPTLISSWVLFNLAPTLDLGLPWFLQEPLLHTFRLPAFLIKSTYNKLYDYFQSVATPVMEQAEKLGVPKDEAVHNILFAVCFNTFGGVKILFPNTLKWIGVAGENLHTQLAEEIRGAIKSYGDGNVTLEAIEQMPLTKSVVYESLRIEPPVPPQYGKAKSNFTIESHDATFEVKKGEMLFGYQPFATKDPKVFDRPEEFVPDRFVGDGEALLKYVWWSNGPETESPTVENKQCAGKDFVVLITRLFVIELFRRYDSEIELGESPLGAAVTLTFLKRASI",AOS activity (LOOH degradation),[1]; UV spectra at 10 sec intervals,high AOS activity
same,time to complete disappearance of LOOH (234 nm peak),"[1]; enzyme preparation added to cuvette with LOOH, repetitive UV scans at 10 sec intervals",10 min
same,prenyltransferase activity,[2],complete absence of prenyltransferase activity; also recorded: synthesizes no isoprenes
same,A234 increase on exposure to light (superoxide) with AOS present,[3]; linoleic acid + riboflavin/TEMED + AOS,prevented the increase in A234
same,A234 (conjugated dienes) after AOS added to oxidized linoleic acid,"[3]; linoleic acid oxidized by riboflavin/TEMED in light, 1 μg partially pure AOS, listed as AOS",A234 decreased; also recorded: time-dependent disappearance of conjugated dienes
same,percent electrolyte leakage,[4],substantially less percent electrolyte leakage
same,"isoelectric point (pI), experimental value",[5],6.2
same,kcat,[6],> 1000 s⁻¹
